In experiment [1] the target is human IL-8 type A receptor (IL8R-A), encoded by clone pRK5B.il8r1.1 (human). Briefly: competition of 125I-IL-8 by unlabelled IL-8 on COS cells transfected with pRK5B.il8r1.1, Scatchard analysis.
A further experiment addresses human neutrophils. Briefly: competition of 125I-IL-8 by unlabelled IL-8 on human neutrophils, Scatchard analysis.

With “recombinant human IL-8 (72 amino acid form, made in E. coli) (from UniProt P10145) (ligand)”, the figures for the Kd (in experiment [1]; with human neutrophils) were 3.6 nM and 1.1 nM, respectively.

(Values after patent US5922541.)
